Reference: the supplement of paper PMC11780869

System: Bacillus subtilis
Experiment: cleaved RNA product abundance (RNA/gDNA barcode ratio) relative to median wild-type variant (ratio to wild type); higher = more accumulation of the downstream cleavage product
Details: cleavage site: cggR-gapA (positions -7 to +36 mutated)
Procedure, shortened: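 Truncated aprE or tetM reporter mRNAs with barcoded RNase Y cleavage-site windows, mutagenized from oligos at a 9% error rate, sat in the B. subtilis chromosome. Cells grew in LB at 37°C from OD600 0.0003 to 0.3. Gel-selected cleaved RNA was reverse transcribed and its barcodes sequenced with those from genomic DNA, collapsing by UMI. Cleaved product abundance equals the RNA:gDNA barcode ratio per construct over the median construct with the unmutated site.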

[1] = experiment (reporter, strain, medium): exp 4a: truncated aprE reporter, strain BJT201 with 2% xylose (RNase J1 expressed)
[2] = experiment (reporter, strain, medium): exp 2b: truncated aprE reporter, strain BJT200
[3] = experiment (reporter, strain, medium): exp 6: tetM reporter, strain 168

| Sequence | cleaved RNA product abundance [1] | cleaved RNA product abundance [2] | cleaved RNA product abundance [3] |
| --- | --- | --- | --- |
| ACAGACGAAGGAGCCGCAAAGAAGTTATTAAGGGAGGAATAACCCCTCAATATAAATATCTCTCACTTATTTAAA | 0.213 |  |  |
| ACAGACGAAGGAGCCGCAAAGAAGTTATTAAGGGAGGAATAATCCATCAATATAAATATCTCTCACTTATTTAAA | 0.209 |  |  |
| ACAGACGAAGGAGCCGCAAAGAAGTTATTAAGGGAGGAATAATCCCTAAATATAAATATCTCTCACTTATTTAAA | 0.324 | 0.404 |  |
| ACAGACGAAGGAGCCGCAAAGAAGTTATTAAGGGAGGAATAATCCCTCAAAATAAATATCTCTCACTTATTTAAA | 0.284 |  |  |
| ACAGACGAAGGAGCCGCAAAGAAGTTATTAAGGGAGGAATAATCCCTCAAGATAAATATCTCTCACTTATTTAAA | 0.152 |  |  |
| ACAGACGAAGGAGCCGCAAAGAAGTTATTAAGGGAGGAATAATCCCTCAATATAAATATCTCTCACTTATTTAAA | 0.603 | 0.499 | 0.591 |
| ACAGACGAAGGAGCCGCAAAGAAGTTATTAAGGGAGGAATAATCCCTGAATATAAATATCTCTCACTTATTTAAA | 0.635 |  |  |
| ACAGACGAAGGAGCCGCAAAGAAGTTATTAAGGGAGGAATAATCCTTCAATATAAATATCTCTCACTTATTTAAA | 0.283 |  |  |
| ACAGACGAAGGAGCCGCAAAGAAGTTATTAAGGGAGGAATAATCTCTCAATATAAATATCTCTCACTTATTTAAA | 0.198 |  |  |
| ACAGACGAAGGAGCCGCAAAGAAGTTATTAAGGGAGGAATAATTCCTCAATATAAATATCTCTCACTTATTTAAA | 0.0856 |  |  |
| ACAGACGAAGGAGCCGCAAAGAAGTTATTAAGGGATAAAAAATCCATCAATATAAATATCTCTCACTTATTTAAA |  | 0.123 |  |
| ACAGACGAAGGAGCCGCAAAGAAGTTATTAAGGGATAAAAAATCCCTCAATATAAATATCTCTCACTTATTTAAA | 0.625 |  |  |
| ACAGACGAAGGAGCCGCAAAGAAGTTATTAAGGGATAAACAATCCCTCAATATAAATATCTCTCACTTATTTAAA | 0.798 | 0.787 |  |
| ACAGACGAAGGAGCCGCAAAGAAGTTATTAAGGGATAAAGAATCCCTCAATATAAATATCTCTCACTTATTTAAA | 0.629 |  |  |
| ACAGACGAAGGAGCCGCAAAGAAGTTATTAAGGGATAAATAAACCCTCAATATAAATATCTCTCACTTATTTAAA | 0.445 |  |  |
| ACAGACGAAGGAGCCGCAAAGAAGTTATTAAGGGATAAATAACCCCTCAATATAAATATCTCTCACTTATTTAAA | 0.499 | 0.423 |  |
| ACAGACGAAGGAGCCGCAAAGAAGTTATTAAGGGATAAATAAGCCCTCAATATAAATATCTCTCACTTATTTAAA | 0.821 |  |  |
| ACAGACGAAGGAGCCGCAAAGAAGTTATTAAGGGATAAATAATACCTCAATATAAATATCTCTCACTTATTTAAA | 0.0789 | 0.117 |  |
| ACAGACGAAGGAGCCGCAAAGAAGTTATTAAGGGATAAATAATCACTCAATATAAATATCTCTCACTTATTTAAA | 0.104 | 0.0853 |  |
| ACAGACGAAGGAGCCGCAAAGAAGTTATTAAGGGATAAATAATCCATCAATATAAATATCTCTCACTTATTTAAA | 0.195 |  |  |

| Sequence | cleaved RNA product abundance [1] | cleaved RNA product abundance [2] | cleaved RNA product abundance [3] |
| --- | --- | --- | --- |
| ACAGACGAAGGAGCCGCAAAGAAGTTATTAAGGGATAAATAATCCCACAATATAAATATCTCTCACTTATTTAAA | 0.356 | 0.253 |  |
| ACAGACGAAGGAGCCGCAAAGAAGTTATTAAGGGATAAATAATCCCCCAATATAAATATCTCTCACTTATTTAAA | 0.22 |  |  |
| ACAGACGAAGGAGCCGCAAAGAAGTTATTAAGGGATAAATAATCCCTAAATATAAATATCTCTCACTTATTTAAA | 0.734 | 0.597 |  |
| ACAGACGAAGGAGCCGCAAAGAAGTTATTAAGGGATAAATAATCCCTCAAAATAAATATCTCTCACTTATTTAAA | 0.241 | 0.293 |  |
| ACAGACGAAGGAGCCGCAAAGAAGTTATTAAGGGATAAATAATCCCTCAACATAAATATCTCTCACTTATTTAAA | 0.251 |  |  |
| ACAGACGAAGGAGCCGCAAAGAAGTTATTAAGGGATAAATAATCCCTCAAGATAAATATCTCTCACTTATTTAAA | 0.29 | 0.18 |  |
| ACAGACGAAGGAGCCGCAAAGAAGTTATTAAGGGATAAATAATCCCTCAATAAAAATATCTCTCACTTATTTAAA |  |  | 0.148 |
| ACAGACGAAGGAGCCGCAAAGAAGTTATTAAGGGATAAATAATCCCTCAATATAAAAATCTCTCACTTATTTAAA | 0.943 |  |  |
| ACAGACGAAGGAGCCGCAAAGAAGTTATTAAGGGATAAATAATCCCTCAATATAAAGATCTCTCACTTATTTAAA | 0.505 | 0.482 |  |
| ACAGACGAAGGAGCCGCAAAGAAGTTATTAAGGGATAAATAATCCCTCAATATAAATAACTCTCACTTATTTAAA | 0.823 |  |  |
| ACAGACGAAGGAGCCGCAAAGAAGTTATTAAGGGATAAATAATCCCTCAATATAAATAGCTCTCACTTATTTAAA | 0.553 |  |  |
| ACAGACGAAGGAGCCGCAAAGAAGTTATTAAGGGATAAATAATCCCTCAATATAAATATCTCTCACTTATTTAAA | 0.872 | 0.898 | 0.954 |
| ACAGACGAAGGAGCCGCAAAGAAGTTATTAAGGGATAAATAATCCCTCAATATAAATCTCTCTCACTTATTTAAA | 0.65 | 0.559 |  |
| ACAGACGAAGGAGCCGCAAAGAAGTTATTAAGGGATAAATAATCCCTCAATATAAATGTCTCTCACTTATTTAAA | 0.539 | 0.46 |  |
| ACAGACGAAGGAGCCGCAAAGAAGTTATTAAGGGATAAATAATCCCTCAATATAAATTTCTCTCACTTATTTAAA | 0.368 |  |  |
| ACAGACGAAGGAGCCGCAAAGAAGTTATTAAGGGATAAATAATCCCTCAATATAACTATCTCTCACTTATTTAAA | 0.156 |  |  |
| ACAGACGAAGGAGCCGCAAAGAAGTTATTAAGGGATAAATAATCCCTCAATATAATTATCTCTCACTTATTTAAA | 0.532 | 0.507 |  |
| ACAGACGAAGGAGCCGCAAAGAAGTTATTAAGGGATAAATAATCCCTCAATATACATATCTCTCACTTATTTAAA | 0.699 |  |  |
| ACAGACGAAGGAGCCGCAAAGAAGTTATTAAGGGATAAATAATCCCTCAATATAGATATCTCTCACTTATTTAAA | 1.02 | 0.638 |  |
| ACAGACGAAGGAGCCGCAAAGAAGTTATTAAGGGATAAATAATCCCTCAATATATATATCTCTCACTTATTTAAA | 0.916 |  |  |

| Sequence | cleaved RNA product abundance [1] | cleaved RNA product abundance [2] | cleaved RNA product abundance [3] |
| --- | --- | --- | --- |
| ACAGACGAAGGAGCCGCAAAGAAGTTATTAAGGGATAAATAATCCCTCAATTTAAATATCTCTCACTTATTTAAA | 0.167 |  |  |
| ACAGACGAAGGAGCCGCAAAGAAGTTATTAAGGGATAAATAATCCCTCACTATAAATATCTCTCACTTATTTAAA | 0.193 | 0.247 |  |
| ACAGACGAAGGAGCCGCAAAGAAGTTATTAAGGGATAAATAATCCCTCAGTATAAATATCTCTCACTTATTTAAA | 0.242 |  |  |
| ACAGACGAAGGAGCCGCAAAGAAGTTATTAAGGGATAAATAATCCCTCATTATAAATATCTCTCACTTATTTAAA | 0.267 |  |  |
| ACAGACGAAGGAGCCGCAAAGAAGTTATTAAGGGATAAATAATCCCTCCATATAAATATCTCTCACTTATTTAAA | 0.234 | 0.26 |  |
| ACAGACGAAGGAGCCGCAAAGAAGTTATTAAGGGATAAATAATCCCTCGATATAAATATCTCTCACTTATTTAAA | 0.433 |  |  |
| ACAGACGAAGGAGCCGCAAAGAAGTTATTAAGGGATAAATAATCCCTCTATATAAATATCTCTCACTTATTTAAA | 0.326 | 0.396 |  |
| ACAGACGAAGGAGCCGCAAAGAAGTTATTAAGGGATAAATAATCCCTGAATATAAATATCTCTCACTTATTTAAA | 0.734 |  |  |
| ACAGACGAAGGAGCCGCAAAGAAGTTATTAAGGGATAAATAATCCCTTAATATAAATATCTCTCACTTATTTAAA | 0.48 | 0.71 |  |
| ACAGACGAAGGAGCCGCAAAGAAGTTATTAAGGGATAAATAATCCGTCAATATAAATATCTCTCACTTATTTAAA | 0.166 | 0.132 |  |
| ACAGACGAAGGAGCCGCAAAGAAGTTATTAAGGGATAAATAATCCTTCAATATAAATATCTCTCACTTATTTAAA | 0.338 | 0.303 |  |
| ACAGACGAAGGAGCCGCAAAGAAGTTATTAAGGGATAAATAATCGCTCAATATAAATATCTCTCACTTATTTAAA | 0.0974 |  |  |
| ACAGACGAAGGAGCCGCAAAGAAGTTATTAAGGGATAAATAATCTCTCAATATAAATATCTCTCACTTATTTAAA | 0.355 |  |  |
| ACAGACGAAGGAGCCGCAAAGAAGTTATTAAGGGATAAATAATGCCTCAATATAAATATCTCTCACTTATTTAAA | 0.0991 |  |  |
| ACAGACGAAGGAGCCGCAAAGAAGTTATTAAGGGATAAATAATTCCTCAATATAAATATCTCTCACTTATTTAAA | 0.294 |  |  |
| ACAGACGAAGGAGCCGCAAAGAAGTTATTAAGGGATAAATACTCCCTCAATATAAATATCTCTCACTTATTTAAA | 0.534 | 0.674 |  |
| ACAGACGAAGGAGCCGCAAAGAAGTTATTAAGGGATAAATATTCCCTCAATATAAATATCTCTCACTTATTTAAA | 1.01 | 0.755 |  |
| ACAGACGAAGGAGCCGCAAAGAAGTTATTAAGGGATAAATCATCCCTCAATATAAATATCTCTCACTTATTTAAA | 0.818 |  |  |
| ACAGACGAAGGAGCCGCAAAGAAGTTATTAAGGGATAAATGATCCCTCAATATAAATATCTCTCACTTATTTAAA | 0.455 |  |  |
